# B1: cardiotrophin-1 (protein, UniProt Q16619 1-201, looked up)
# Cardiotrophin-1: MSRREGSLEDPQTDSSVSLLPHLEAKIRQTHSLAHLLTKYAEQLLQEYVQLQGDPFGLPSFSPPRLPVAGLSAPAPSHAGLPVHERLRLDAAALAALPPLLDAVCRRQAELNPRAPRLLRRLEDAARQARALGAAVEALLAALGAANRGPRAEPPAATASAASATGVFPAKVLGLRVCGLYREWLSRTEGDLGQLLPGGSA
# notes: gp130 signaling cytokine of the LIF or IL-6 superfamily; 201 amino acids as a mature protein, 21.5 kDa
# Assays:
# [1] = test system: cardiac fibroblasts; assay: 3H-thymidine incorporation (DNA synthesis) proliferation assay; assay type: cell-based, rat
# Method: DNA synthesis was measured by uptake of ^3H-thymidine as previously described (Saward and Zahradka, 1997, Mol Cell Biochem 176: 53-59) with modification. Briefly, 2.5×10^4 cells (counted with a hemacytometer) in DMEM/F12 with 10% FBS were loaded into each well of 24-well culture plates, allowed to attach overnight and rendered quiescent in serum-free DMEM with 100 μM ascorbate for 24 hours. S-phase re-entry in response to CT-1 was measured in two ways: pulse labeling with ^3H-thymidine for 30 minutes every 6 hours, or labeling for the last 30 minutes of 6 or 12 hour incubation. DNA in cell lysate was precipitated with cold 20% trichloroacetic acid (TCA) and filtered through GF/A filters (Fisher). Beta emission from the dried filers was measured with Cytoscint scintillation fluid (ICN Pharmaceuticals, Costa Mesa, Calif.) and a scintillation counter (LS6500, Beckman Coulter, Fullerton, Calif.).
# [2] = test system: cardiac fibroblasts; assay: Wounded monolayer model, cortactin immunostaining; assay type: cell-based, rat; conditions: 4 hours after creation of the wound
# Method: Cardiac fibroblasts were seeded onto coverslips in 6-well dishes and allowed to proliferate. Once the cells were near confluency, they were serum deprived for 24 hours. A scrape was made down the middle of the coverslip with the blunt end of a 1 ml syringe and the media was changed again. Cells were further incubated in the presence or absence of CT-1 and inhibitors at specified concentrations for specified times. The cells were then subjected to immunofluorescence staining as described herein.
molecule,measurement,setting,value
B1,CT-1 dose of peak 3H thymidine incorporation (maximal DNA synthesis),[1]; 6 or 12 hours incubation,10 to 20 ng/mL
same,lowest CT-1 concentration with elevated incorporation of 3H thymidine,[1]; 6 or 12 hours incubation,1 ng/mL
same,pathway dependence of CT-1 induced cell proliferation (DNA synthesis),"[1]; pretreatment with inhibitors, CT-1 10 ng/mL for 12 hours","dependent on Jak, P13-K, MAPK, and Src kinases"
same,time to S-phase re-entry after addition of CT-1,"[1]; quiescent cells, 10 ng/mL CT-1, 3H-thymidine pulse labeling",≤ 6 h
same,localization of cortactin,[2],at the leading edge of lamellipodia

# Reference: US20050171004A1, “Use of cardiotrophin-1 to promote wound healing and counteract overt fibrosis” (priority 2003, published 2005)
